# From patent US11340215B2, “Screening method of anticancer agent focused on function of HP1 and evaluation system” (JAPANESE FOUNDATION FOR CANCER RESEARCH, priority 2016, dated 2022)
# Key:
# Aurora B [1] = biological target: T1, Aurora B (Homo sapiens, UniProt Q96GD4); assay: Immunostaining of metaphase cells with anti-HP1α-pS92 antibody; format: cell-based; design: endogenous in cells; conditions: FIG. 5D
# Procedure: (§1) Cells were cultured on a cover glass and immobilized with 4% paraformaldehyde in PHEM buffer solution (60 mM PIPES, 25 mM HEPES, 10 mM EGTA, 2 mM MgCl2, pH7.0) or PBS, at room temperature. Cells were treated with the above buffer solution containing 0.2 to 1.0% Triton X-100, and blocked with a 3% BSA-containing buffer. Images were obtained by AxiolmagerM1 miacroscope (manufactured by Zeiss) equipped with CoolSNAP HQ camera (manufactured by Photometrics) operated by MetaMorph software (manufactured by MDS Analytical Technologies). The intensity of fluorescence was analyzed by ImageJ software (National Institute of Health).
# It was shown that the anti-HP1α-pS92 antibody sensitively detects phosphorylated HP1α even if it is used in immunostaining (FIGS. 5D, E). Cells of the interphase, cells of the metaphase, cells of the metaphase where the expression of HP1α was depleted by siRNA and cells of the metaphase where the activity of Aurora B was suppressed by ZM447439 were immunostained with an anti-HP1α-pS92 antibody (FIG. 5D). Only the metaphase cells used as the control were stained. In the interphase cells, cells where the expression of HP1α was depleted and cells where the activity of Aurora B was suppressed, phosphorylated HP1α was not detected.
# Target sequence in this assay (Q96GD4 whole entry): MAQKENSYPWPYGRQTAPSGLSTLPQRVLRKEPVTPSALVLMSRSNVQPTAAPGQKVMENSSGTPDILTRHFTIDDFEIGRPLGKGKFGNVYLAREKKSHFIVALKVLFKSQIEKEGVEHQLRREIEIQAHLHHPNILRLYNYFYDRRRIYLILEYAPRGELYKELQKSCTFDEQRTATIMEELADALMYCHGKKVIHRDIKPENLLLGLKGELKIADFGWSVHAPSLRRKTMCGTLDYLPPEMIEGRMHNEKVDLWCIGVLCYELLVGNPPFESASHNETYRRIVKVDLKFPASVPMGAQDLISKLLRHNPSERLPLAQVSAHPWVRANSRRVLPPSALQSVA
# Target sequence in this assay (Q9NQS7 whole entry partner): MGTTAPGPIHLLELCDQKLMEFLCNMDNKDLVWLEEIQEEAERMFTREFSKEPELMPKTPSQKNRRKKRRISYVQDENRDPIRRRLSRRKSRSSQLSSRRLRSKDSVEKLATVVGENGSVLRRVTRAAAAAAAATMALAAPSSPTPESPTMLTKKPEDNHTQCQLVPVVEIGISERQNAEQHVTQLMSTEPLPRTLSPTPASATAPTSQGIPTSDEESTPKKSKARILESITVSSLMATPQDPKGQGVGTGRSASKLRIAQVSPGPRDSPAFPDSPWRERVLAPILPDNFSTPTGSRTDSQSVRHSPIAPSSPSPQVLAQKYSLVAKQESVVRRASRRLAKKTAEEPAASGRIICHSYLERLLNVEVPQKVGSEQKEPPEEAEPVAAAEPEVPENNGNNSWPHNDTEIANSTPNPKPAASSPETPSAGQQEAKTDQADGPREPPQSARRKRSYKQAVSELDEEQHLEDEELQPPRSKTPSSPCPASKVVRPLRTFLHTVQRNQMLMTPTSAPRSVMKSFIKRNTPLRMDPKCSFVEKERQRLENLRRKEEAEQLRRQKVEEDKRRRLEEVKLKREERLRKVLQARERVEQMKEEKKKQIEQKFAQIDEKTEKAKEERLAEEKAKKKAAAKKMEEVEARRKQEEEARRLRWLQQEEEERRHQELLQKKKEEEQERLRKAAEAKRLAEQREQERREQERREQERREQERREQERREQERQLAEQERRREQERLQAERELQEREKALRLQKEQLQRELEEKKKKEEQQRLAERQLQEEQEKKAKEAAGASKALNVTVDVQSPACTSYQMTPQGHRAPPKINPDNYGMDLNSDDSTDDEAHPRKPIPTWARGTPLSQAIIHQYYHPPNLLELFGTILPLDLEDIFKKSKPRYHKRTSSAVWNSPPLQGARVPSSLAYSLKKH
# Target sequence in this assay (O15392 whole entry partner): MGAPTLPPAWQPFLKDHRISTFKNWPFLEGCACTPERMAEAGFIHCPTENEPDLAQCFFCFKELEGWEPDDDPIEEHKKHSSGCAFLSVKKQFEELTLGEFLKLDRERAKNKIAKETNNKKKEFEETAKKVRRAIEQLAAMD
# Target sequence in this assay (Q53HL2 whole entry partner): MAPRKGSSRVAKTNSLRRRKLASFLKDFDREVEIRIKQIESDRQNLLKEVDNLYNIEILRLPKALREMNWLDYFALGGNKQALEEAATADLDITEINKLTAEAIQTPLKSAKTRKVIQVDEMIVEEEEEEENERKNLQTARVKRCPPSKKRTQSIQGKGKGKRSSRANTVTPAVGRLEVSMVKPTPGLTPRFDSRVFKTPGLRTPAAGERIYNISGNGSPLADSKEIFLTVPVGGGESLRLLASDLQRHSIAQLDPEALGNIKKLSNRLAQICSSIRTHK
# Aurora B [2] = biological target: T1, Aurora B; assay: Phosphorylation of Aurora B substrates in HeLa cells, fluorescence microscopy with phospho-specific antibodies; format: cell-based; design: endogenous in cells; host or cells: HeLa
# Procedure: as §1
# Target sequence in this assay (Q96GD4 whole entry): as the sequence (Q96GD4 whole entry) above
# Target sequence in this assay (Q9NQS7 whole entry partner): as the sequence (Q9NQS7 whole entry partner) above
# Target sequence in this assay (O15392 whole entry partner): as the sequence (O15392 whole entry partner) above
# Target sequence in this assay (Q53HL2 whole entry partner): as the sequence (Q53HL2 whole entry partner) above
# Next, activation of Aurora B was analyzed based on degree of phosphorylation of a substrate. HeLa cells were transfected with siRNA of all subtypes of HP1 to inhibit expression of all HP1 subtypes. […] The cells were immobilized and then analyzed by a fluorescence microscope using an antibody recognizing phosphorylation of serine at position 10 of histone H3 (H3-pS10, 6G3, manufactured by Cell Signaling Technology) (FIG. 4B); an antibody recognizing phosphorylation of serine at position 44 of Hec1 (Hec1-pS44, Non Patent Literature 8); an Hec1 antibody (9G3.23, manufactured by Novus Biologicals) (FIG. 4C); and an antibody recognizing phosphorylation of serine at position 100 of Dsn1 (Dsn-pS100, Non Patent Literature 9) (FIG. 4D).
# Aurora B [3] = biological target: T1, Aurora B; assay: Kinase activity of fractions immunoprecipitated with anti-HP1α-pS92 antibody or INCENP antibody; format: biochemical; design: endogenous in cells; conditions: addition of inhibitor
# Procedure: The cells in the mitotic phase were incubated in a solution, which was prepared by adding 1 U/μl OmniCleave Endonuclease (manufactured by Epicentre) in the above immunoprecipitation buffer, at 4° C. for 30 minutes. The solution was centrifuged at 4° C. and 15,000 rpm for 10 minutes and the supernatant was further centrifuged. The resultant supernatant was used for immunoprecipitation. Protein A-Sepharose (manufactured by Bio-Rad) having an antibody bound thereto, was allowed to react with cell extracts and subjected to immunoprecipitation. The sample obtained by immunoprecipitation was subjected to the immunoblotting using peroxidase-labeled Mouse TrueBlot ULTRA or Rabbit TrueBlot (manufactured by eBioscience) as a secondary antibody.
# The kinase assay was carried out by adding a substrate in a kinase buffer (20 mM Tris-HCl, 50 mM MgCl2, 100 mM NaCl, 20 μM ATP, pH7.5) and 0.2 mCi/ml[γ^− ^32P]ATP. […] Phosphorylation was analyzed by Typhoon scanner (manufactured by GE Healthcare) and a liquid scintillation counter.
# Next, we will describe that the binding of HP1 to CPC is necessary for activating Aurora B. Immunoprecipitation was carried out with anti-HP1α-pS92 antibody and INCENP antibody and proteins constituting CPC and subtypes of HP1 were analyzed by immunoblotting (FIG. 5H, left panel). […]
# Target sequence in this assay (Q96GD4 whole entry): as the sequence (Q96GD4 whole entry) above
# Target sequence in this assay (Q9NQS7 whole entry partner): as the sequence (Q9NQS7 whole entry partner) above
# Target sequence in this assay (O15392 whole entry partner): as the sequence (O15392 whole entry partner) above
# Target sequence in this assay (Q53HL2 whole entry partner): as the sequence (Q53HL2 whole entry partner) above
# Aurora B [4] = biological target: T1, Aurora B; assay: In vitro kinase assay with recombinant INCENP, Aurora B and HP1; format: biochemical; conditions: for activation of Aurora B: recombinant proteins, 1 μM HP1
# Procedure: The kinase assay was carried out by adding a substrate in a kinase buffer (20 mM Tris-HCl, 50 mM MgCl2, 100 mM NaCl, 20 μM ATP, pH7.5) and 0.2 mCi/ml[γ^− ^32P]ATP. As the substrate, GST-Hec1 (1-80) or recombinant histones H3 (manufactured by New England Biolas) was used. Twenty nM INCENP and 120 nM GST-Aurora B were reacted in the presence or absence of 1 μM HP1 at 30° C. for 20 minutes and the reaction was terminated by Laemmli sample buffer. Phosphorylation was analyzed by Typhoon scanner (manufactured by GE Healthcare) and a liquid scintillation counter.
# Using recombinant proteins of INCENP, Aurora B and HP1α, in vitro kinase assay was carried out (FIG. 6C). […] Accordingly, it was shown that physical binding of HP1 to INCENP is required for activation of Aurora B, and that HP1 has an allosteric effect on Aurora B.
# Then, enzyme kinetics analysis of Aurora B was carried out. […] Further, analysis of proteins binding to GST-Aurora B was carried out by the GST pull down assay. As a result, the amount of Hec1 binding to GST-Aurora B increased in the conditions where HP1 can bind to INCENP. […] Accordingly, binding of HP1α to INCENP is required for activating Aurora B.
# Target sequence in this assay (Q96GD4 whole entry): as the sequence (Q96GD4 whole entry) above
# Target sequence in this assay (Q9NQS7 whole entry partner): as the sequence (Q9NQS7 whole entry partner) above
# HP1α = biological target: T2, HP1α (Homo sapiens, UniProt P45973); assay: Binding assay of INCENP (positions 121 to 270) and HP1α by isothermal titration calorimetry
# T2 construct: His tag or GST tag
# Procedure: Wild type HP1α and a region at positions 121 to 270 in INCENP (SEQ ID NO: 8, INCENP WT) were used in the binding assay. The region at positions 121 to 270 in INCENP contains an important motif […], required for binding to HP1. A mutant (SEQ ID NO: 9, INCENP 3A) was obtained by substituting three amino acids in this region with alanine residues and used as a control. A dissociation constant thereof was determined by isothermal titration calorimetry. As an isothermal titration calorimetry apparatus, any device may be used. For example, using MicroCal iTC2000 system (manufactured by GE healthcare biosciences), measurement may be carried out, in accordance with a conventional method.
# The above peptides, to which His tag or GST tag was attached, were subjected to isothermal titration calorimetry to determine a dissociation constant. Note that, the dissociation constant was computationally obtained based on average values of 5 experiments.
# T2 sequence (P45973 whole entry): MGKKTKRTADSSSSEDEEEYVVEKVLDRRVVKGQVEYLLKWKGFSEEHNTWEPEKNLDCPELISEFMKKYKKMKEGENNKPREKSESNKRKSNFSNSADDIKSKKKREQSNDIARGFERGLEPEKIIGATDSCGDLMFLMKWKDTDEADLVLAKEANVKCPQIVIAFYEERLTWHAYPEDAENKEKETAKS
molecule,measurement,setting,value
COc1cc2c(Nc3ccc(NC(=O)c4ccccc4)cc3)ncnc2cc1OCCCN1CCOCC1 [ZM447439],phosphorylated HP1α detected by immunostaining,Aurora B [1],not detected
same,"Phosphorylation by Aurora B of substrates (H3, Hec1, Dsn1)",Aurora B [2]; FIGS. 4B to 4D legend,suppressed
same,effect on phosphorylation of Hec1 and Dsn1,"Aurora B [2]; HeLa cells, low concentration (0.4 μM)",suppressive effect equal to the effect produced by depletion of HP1
same,kinase activities of the fractions obtained by immunoprecipitation with the anti-HP1α-pS92 antibody and the INCENP antibody,Aurora B [3],inhibited
"HP1 mutant I165E: HP1 mutant which cannot form a dimer, cannot bind to INCENP",activation of Aurora B,Aurora B [4],does not activate
HP1α: recombinant heterochromatin protein 1 subtype α,reaction rate of substrate phosphorylation by Aurora B per unit time,"Aurora B [4]; enzyme kinetics analysis, FIG. 6G",significantly increases
same,activation of Aurora B,Aurora B [4],highly activate
HP1β: heterochromatin protein 1 subtype β,activation of Aurora B,Aurora B [4],highly activate
HP1γ: heterochromatin protein 1 subtype γ,activation of Aurora B,Aurora B [4],highly activate
"INCENP 3A: mutant (SEQ ID NO: 9) obtained by substituting three amino acids of the P×V×I motif with alanine residues (protein, HP1 binding site mutant) LRRVTRAAAAAAAATMALAAPSSPTPESPTMLTKKPEDNHTQCQLVAVAEAGISERQNAEQHVTQLMSTEPLPRTLSPTPASATAPTSQGIPTSDEESTPKKSKARILESITVSSLMATPQDPKGQGVGTGRSASKLRIAQVSPGPRDSP",binding to HP1,HP1α,does not bind to HP1
"INCENP WT: region at positions 121 to 270 in INCENP (SEQ ID NO: 8), with His tag or GST tag (protein, listed as Homo sapiens, His tag or GST tag) LRRVTRAAAAAAAATMALAAPSSPTPESPTMLTKKPEDNHTQCQLVPVVEIGISERQNAEQHVTQLMSTEPLPRTLSPTPASATAPTSQGIPTSDEESTPKKSKARILESITVSSLMATPQDPKGQGVGTGRSASKLRIAQVSPGPRDSP",Binding,"HP1α; binding to wild type HP1α, isothermal titration calorimetry, His tag or GST tag peptides",◯
